# Test results as given in patent US20230002480A1.
# Legend:
# Experiment in all cases: cell-based or functional assay
# [1] = target: HIV-1 Env of pseudovirus HIV-16845-2.22 (HIV-1)
# [2] = target: HIV-1 Env of pseudovirus SC05_8C11_2344 (HIV-1)
# [3] = target: HIV-1 Env of pseudovirus Ce1176_A3 (HIV-1)
# [4] = target: HIV-1 Env of pseudovirus ZM233M.PB6 (HIV-1)
# [5] = target: HIV-1 Env of pseudovirus CNE53 (HIV-1)
# [6] = target: HIV-1 Env of pseudovirus MS208.A1 (HIV-1)
# [7] = target: HIV-1 Env of pseudovirus QH0692.42 (HIV-1)
# [8] = target: HIV-1 Env of pseudovirus Ce2010_F5 (HIV-1)
# [9] = target: HIV-1 Env of pseudovirus HIV-0013095-2.11 (HIV-1)
# [10] = target: HIV-1 Env of pseudovirus HIV-001428-2.42 (HIV-1)
# [11] = target: HIV-1 Env of pseudovirus Ce1172_H1 (HIV-1)
# [12] = target: HIV-1 Env of pseudovirus CAAN5342.A2 (HIV-1)
# [13] = target: HIV-1 Env of pseudovirus Q23.17 (HIV-1)
# [14] = target: HIV-1 Env of pseudovirus Q769.d22 (HIV-1)
# [15] = target: HIV-1 Env of pseudovirus WEAU_d15_410_787 (HIV-1)
# [16] = target: HIV-1 Env of pseudovirus PVO.4 (HIV-1)
# [17] = target: HIV-1 Env of pseudovirus Ce1086_B2 (HIV-1)
# [18] = target: HIV-1 Env of pseudovirus REJO4541.67 (HIV-1)
# [19] = target: HIV-1 Env of pseudovirus 6244_13_B5_4576 (HIV-1)
# [20] = target: HIV-1 Env of pseudovirus TRO.11 (HIV-1)
# [21] = target: HIV-1 Env of pseudovirus ZM247v1(Rev-) (HIV-1)
# [22] = target: HIV-1 Env of pseudovirus 1054_07_TC4_1499 (HIV-1)
# [23] = target: HIV-1 Env of pseudovirus 6535.3 (HIV-1)
substance,measurement,setting,value
N49P9 (antibody),IC50,[1],1.09 µg/mL
same,IC80,[1],9.96 µg/mL
same,MPI,[1],98
same,IC50,[2],0.473 µg/mL
same,IC80,[2],1.61 µg/mL
same,MPI,[2],100
same,IC50,[3],0.258 µg/mL
same,IC80,[3],0.919 µg/mL
same,MPI,[3],100
same,IC50,[4],> 50 µg/mL
same,IC80,[4],> 50 µg/mL
same,MPI,[4],48
same,IC50,[5],0.123 µg/mL
same,IC80,[5],0.462 µg/mL
same,MPI,[5],99
same,IC50,[6],0.08 µg/mL
same,IC80,[6],0.294 µg/mL
same,MPI,[6],100
same,IC50,[7],0.352 µg/mL
same,IC80,[7],1.21 µg/mL
same,MPI,[7],100
same,IC50,[8],0.089 µg/mL
same,IC80,[8],0.271 µg/mL
same,MPI,[8],100
same,IC50,[9],0.179 µg/mL
same,IC80,[9],0.635 µg/mL
same,MPI,[9],100
same,IC50,[10],0.022 µg/mL
same,IC80,[10],0.106 µg/mL
same,MPI,[10],99
same,IC50,[11],8.8 µg/mL
same,IC80,[11],> 50 µg/mL
same,MPI,[11],70
same,IC50,[12],2.09 µg/mL
same,IC80,[12],7.38 µg/mL
same,MPI,[12],100
same,IC50,[13],0.032 µg/mL
same,IC80,[13],0.091 µg/mL
same,MPI,[13],100
same,IC50,[14],0.036 µg/mL
same,IC80,[14],0.123 µg/mL
same,MPI,[14],100
same,IC50,[15],0.063 µg/mL
same,IC80,[15],0.162 µg/mL
same,MPI,[15],100
same,IC50,[16],0.179 µg/mL
same,IC80,[16],0.628 µg/mL
same,MPI,[16],100
same,IC50,[17],0.341 µg/mL
same,IC80,[17],1.69 µg/mL
same,MPI,[17],97
same,IC50,[18],0.071 µg/mL
same,IC80,[18],0.291 µg/mL
same,MPI,[18],100
same,IC50,[19],0.132 µg/mL
same,IC80,[19],0.366 µg/mL
same,MPI,[19],100
same,IC50,[20],0.044 µg/mL
same,IC80,[20],0.177 µg/mL
same,MPI,[20],100
same,IC50,[21],0.622 µg/mL
same,IC80,[21],3.3 µg/mL
same,MPI,[21],100
same,IC50,[22],0.885 µg/mL
same,IC80,[22],2.44 µg/mL
same,MPI,[22],100
same,IC50,[23],0.552 µg/mL
same,IC80,[23],2.26 µg/mL
same,MPI,[23],100
